The values that follow are results of earlier work, collected in article PMC4599565.

One may read the pKd as −log10 of the Kd, conventionally taken in molar units.

This data set addresses VWF (Homo sapiens) (UniProt P04275).

pKd: −log10 of the molar value.

With ADAMTS13 (from UniProt Q76LX8), the negative logarithm of the Kd (pKd) is 7.70.
